# According to the supplement of paper PMC7877785:
# ± gives the uncertainty stated by the source.
# Experiment: self-splicing fitness, log relative to wild type (ln ratio); higher = more splicing; Tetrahymena group I intron in knt gene, E. coli kanamycin selection, DiMSum; sequences stand for … in CUCUCU…GGAGGGAAAAGUUAUCAGGCAUGCACCUGGUAGCUAGUCUUUAAACCAAUAGAUUGCAUCGGUUUAAAAGGCAAGACCGUCAAAUUGCGGGAAAGGGGUCAACAGCCGUUCAGUACCAAGUCUCAGGGGAAACUUUGAGAUGGCCUUGCAAAGGGUAUGGUAAUAAGCUGACGGACAUGGUCCUAACCACGCAGCCAAGUCCUAAGUCAACAGAUCUUCUGUUGAUAUGGAUGCAGUUCACAGACUAAAUGUCGGUCGGGGAAGAUGUAUUCUUCUCAUAAGAUAUAGUCGGACCUCUCCUUAAUGGGAGCUAGCGGAUGAAGUGAUGCAACACUGGAGCCGCUGGGAACUAAUUUGUAUGCGAAAGUAUAUUGAUUAGUUUUGGAGUACUCGUGGUCG
# Summary of the method: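 Colonies from six replicate transformations of E. coli BL21(DE3) were pooled and amplicon-sequenced on an Illumina HiSeq 2500. The library placed an intron with all eight P1ex-region nucleotides randomised inside the knt kanamycin-resistance gene on pET-22b(+), and cells grew overnight at 37°C or 30°C on LB agar with or without 25 μg/mL kanamycin (plus 100 μg/mL carbenicillin, 50 μM IPTG, 0.2% rhamnose). Fitness is the DiMSum error-weighted combination of wild-type-normalised replicate fold changes, kanamycin versus none.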
Sequence,self-splicing fitness (ln) (30 °C),self-splicing fitness (ln) (37 °C)
CUGAAGCAAUAUUACGCCAG,-3.75 ± 0.29,-1.17 ± 0.21
CUGAAGCAAUAUUACGCCUG,-0.0552 ± 0.12,0.982 ± 0.16
CUGAAGCAAUAUUACGCCUU,-4.07 ± 0.33,-2.33 ± 0.31
CUGAAGCAAUAUUACGGGCC,-3.65 ± 0.32,–
CUGAAGCAAUAUUACGGGCG,0.0611 ± 0.06,-0.103 ± 0.074
CUGAAGCAAUAUUACGUAAC,–,-1.22 ± 0.24
CUGAAGCAAUAUUACGUACC,-3.37 ± 0.36,–
CUGAAGCAAUAUUACGUAGC,-4.07 ± 0.28,-3.43 ± 0.24
CUGAAGCAAUAUUACGUAUA,-2.8 ± 0.18,-2.19 ± 0.27
CUGAAGCAAUAUUACGUCAU,-1.03 ± 0.093,-0.736 ± 0.12
CUGAAGCAAUAUUACGUCCA,-1.93 ± 0.25,–
CUGAAGCAAUAUUACGUCGC,-3.18 ± 0.16,-1.55 ± 0.22
CUGAAGCAAUAUUACGUGCA,-3.96 ± 0.27,-2.82 ± 0.25
CUGAAGCAAUAUUACGUGGC,-1.58 ± 0.077,-0.491 ± 0.099
CUGAAGCAAUAUUACGUGUG,-0.196 ± 0.046,-0.0989 ± 0.067
CUGCAGCAAUAUUACGAACG,0.237 ± 0.087,-0.269 ± 0.08
CUGCAGCAAUAUUACGAAGA,-1.62 ± 0.23,-2.17 ± 0.27
CUGCAGCAAUAUUACGAAUG,-0.593 ± 0.066,-0.0469 ± 0.081
CUGCAGCAAUAUUACGAUCA,-3.57 ± 0.29,-2.5 ± 0.2
CUGCAGCAAUAUUACGAUUC,–,-2.05 ± 0.2
CUGCAGCAAUAUUACGCAUC,–,-2.46 ± 0.3
CUGCAGCAAUAUUACGCCAA,–,-1.67 ± 0.18
CUGCAGCAAUAUUACGCCCG,-0.269 ± 0.098,0.148 ± 0.13

Sequence,self-splicing fitness (ln) (30 °C),self-splicing fitness (ln) (37 °C)
CUGCAGCAAUAUUACGCCGG,-2.55 ± 0.19,-1.56 ± 0.29
CUGCAGCAAUAUUACGCGGC,–,-2.63 ± 0.34
CUGCAGCAAUAUUACGCGUC,-3.98 ± 0.35,-2.05 ± 0.32
CUGCAGCAAUAUUACGCUGC,-2.88 ± 0.29,–
CUGCAGCAAUAUUACGGAUA,-3.58 ± 0.29,-2.69 ± 0.25
CUGCAGCAAUAUUACGGAUU,-3.49 ± 0.18,-1.8 ± 0.16
CUGCAGCAAUAUUACGGCUU,-4.37 ± 0.36,-2.23 ± 0.28
CUGCAGCAAUAUUACGGGCU,-4.01 ± 0.17,-1.81 ± 0.17
CUGCAGCAAUAUUACGUACC,-3.22 ± 0.19,-2.68 ± 0.44
CUGCAGCAAUAUUACGUAGC,-2.66 ± 0.15,-1.95 ± 0.18
CUGCAGCAAUAUUACGUCUU,-3.15 ± 0.11,-2.64 ± 0.12
CUGCAGCAAUAUUACGUGUG,-1.65 ± 0.043,-1.27 ± 0.06
CUGCAGCAAUAUUACGUUAG,-2.97 ± 0.1,-1.19 ± 0.1
CUGCAGCAAUAUUACGUUGA,-3.42 ± 0.2,-3.21 ± 0.24
CUGCAGCAAUAUUACGUUGG,-2.82 ± 0.14,-3.09 ± 0.27
CUGCAGCAAUAUUACGUUUG,-2.61 ± 0.094,-0.958 ± 0.098
CUGGAGCAAUAUUACGACGG,-3.79 ± 0.38,-3.09 ± 0.43
CUGGAGCAAUAUUACGAGUU,-2.26 ± 0.13,-3.51 ± 0.33
CUGGAGCAAUAUUACGAUAU,-2.36 ± 0.35,-2.54 ± 0.41
CUGGAGCAAUAUUACGCAAG,-2.82 ± 0.21,-2.08 ± 0.27
CUGGAGCAAUAUUACGCAUG,-2.07 ± 0.13,-0.898 ± 0.17
CUGGAGCAAUAUUACGCCGA,-1.18 ± 0.34,–
